# Source: publication PMC9887155 (2023)
# Ends that are not written are not given here.
# Experiments:
# [1] = target: T1, Gtα/Giα with a C-terminus truncated by six amino acids (European robin (Erithacus rubecula)); test: SPR; two-state reaction model, first step (kd1/ka1)
# [2] = target: T1, Gtα/Giα with a C-terminus truncated by …; test: SPR; two-state reaction model, kd1
binder,measurement,setting,value
CGAGAWERWFVVCKPFGNIKFDGK-NH2 (cysteine pairing not given here) [peptide LWO2 (second cytoplasmic loop of long-wavelength-sensitive opsin of European robin)],Kd,[1],933 nM
same,koff,[2],0.00434 s⁻¹
